These results are taken from patent US20190025332A1 (Novo Nordisk, published 2019).

The labels stand for the following.
B1: mGFRAL(ECR)-Fab-HPC4 (receptor)
chain: QTNDCAHLIQKCLIDANGCEQSWRSMEDTCLTPGDSCKINNSLHCNLSIQALVEKNFQFKECLCMDDLHCTVNKLFGKKCTNKTDNMEKDNKDKWNLTTTPFYHGFKQMQSCLEVTEACVGDVVCNAQLALYLKACSANGNLCDVKHCQAAIRFFYQNMPFNTAQMLAFCDCAQSDIPCQQSKETLHSKPCALNIVPPPTCLSVIHTCRNDELCRTHYRTFQTECWPHITGKCHEDETCISMLGKQDLTCSGSESCRAAFLGTFGTVLQVPCACRGVTQAEEHVCMIFQHMLHSKSCFNYPTPNVKDISSYEKKNSKEITLTGFNSFFNGGGGSGGGGSDVVMTQTPLSLPVSLGDQASISCRSSQSLLHSNGNTYLHWYLQKPGQSPKLLIYKVSNRFSGVPDRFSGSGSGTDFTLKISRVEAEDLGVYFCSQSTHVPWTFGGGTKLEIKRADAAPTVSIFPPSSEQLTSGGASVVCFLNNFYPKDINVKWKIDGSERQNGVLNSWTDQDSKDSTYSMSSTLTLTKDEYERHNSYTCEATHKTSTSPIVKSFNRNEC
heavy: EVQIQESGPSLVKPSQTLSLTCSVSGDSITSGYWNWIRKFPGHKIEYMGTISYSGDTYYNPSLKSRISITRDTSKNQYYLHLNSVTTEDTATYYCARYGSYVFDYWGQGTTLTVSSAKTTPPSVYPLAPGSAAQTNSMVTLGCLVKGYFPEPVTVTWNSGSLSSGVHTFPAVLQSDLYTLSSSVTVPSSTWPSETVTCNVAHPASSTKVDKKIVPRDCGGGGSEDQVDPRLIDGK
notes: Soluble fusion of the mouse GFRAL (isoform 1) extracellular region with an anti-TNP Fab; also called mGFRA(ECR)L-Fab-HPC4
B2: wild type human MIC-1 (ligand)
chain: ARNGDHCPLGPGRCCRLHTVRASLEDLGWADWVLSPREVQVTMCIGACPSQFRAANMHAQIKTSLHRLKPDTVPAPCCVPASYNPMVLIQKTDTGVSLQTYDDLLAKDCHCI
notes: also called wtMIC-1; hMIC-1

For the assay “wild type human MIC-1”, the target named is B2. In words: SPR; ligand as analyte over immobilised mGFRAL(ECR)-Fab-HPC4. The source says: (§1) For SPR-based binding assay, wtMIC-1 as well as hGDNF, hNRTN, hARTN and hPSPN, at various concentrations were run as flow-through analytes. hGFRAL(ECR)-Fab and mGFRAL(ECR)-Fab were immobilized as ligand. […] FCRL2-Fab-HPC4 (Ctrl.-Fab-HPC4) was used as control. Please see FIG. 5 and Table 4.

A further assay concerns the target T1, hARTN (human, UniProt Q5T4W7 108-220).
T1 sequence (looked up): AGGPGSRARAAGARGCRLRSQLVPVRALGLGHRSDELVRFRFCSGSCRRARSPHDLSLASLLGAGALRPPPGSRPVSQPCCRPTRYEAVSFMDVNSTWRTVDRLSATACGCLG
The description is as above.
Source text: as §1

The target of the next assay is T2, hNRTN (human, UniProt Q99748 96-197).
T2 sequence (looked up): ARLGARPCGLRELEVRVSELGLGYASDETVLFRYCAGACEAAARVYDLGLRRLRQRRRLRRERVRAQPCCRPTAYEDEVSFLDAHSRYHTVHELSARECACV
Described as above.
Source text: as §1

A further assay concerns the target T3, hGDNF (human, UniProt P39905 78-211).
T3 sequence (looked up): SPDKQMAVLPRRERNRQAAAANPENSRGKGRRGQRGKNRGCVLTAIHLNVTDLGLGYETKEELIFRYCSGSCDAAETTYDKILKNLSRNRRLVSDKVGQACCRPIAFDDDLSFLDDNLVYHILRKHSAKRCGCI
The description is as above.
Source text: as §1

The target in the next assay is T4, hPSPN (human, UniProt O60542 61-156, limits assumed).
T4 sequence (looked up): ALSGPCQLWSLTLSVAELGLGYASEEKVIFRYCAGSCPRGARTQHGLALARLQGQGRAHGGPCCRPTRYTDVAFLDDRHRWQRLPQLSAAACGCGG
The description is as above.
Source text: as §1

The target in assay [1] is T5, hRET(ECR)-hIgG1.1_Fc (human).
T5 construct: also called hRET(ECR)-Fc; hRet(ECR)-Fc
Kind of assay: SPR; analyte 333 nM over immobilised hRet(ECR)-Fc. Here is the method:
(§2) hRet and complex of hGFRAL and MIC-1 interactions were assessed by SPR-based binding assay. A Biacore® 4000 (GE Healthcare, Piscataway, N.J., USA) instrument was used. The assays were performed at 25° C. at flow rates of 30 μL/minute in 1× HBS-P running buffer (BR-1006-71, GE Healthcare, Piscataway, N.J., USA). hRet(ECR)-Fc was immobilized through Fc as ligand on the chip. VISTA-Fc was immobilized as negative control ligand. The complex of MIC-1 and hGFRAL was prepared by pre-incubating wtMIC-1 with hGFRAL(ECR)-His. wtMIC-1, hGFRAL(ECR)-His, complex of wtMIC-1 and Ctrl-His, and complex of wtMIC-1 and hGFRAL(ECR)-His at various concentration were run as flow-through analyte.
(§3) Thus, it can be concluded that that hRet binds to hGFRAL in the presence of MIC-1; and Ret, MIC-1 and GFRAL forms a ternary complex.

Assay [2] concerns the target T6, VISTA-Fc.
T6 construct: Negative control ligand immobilised on the chip; also called Ctrl-Fc
In words: SPR; analyte 333 nM over immobilised VISTA-Fc (Ctrl-Fc). As to the method:
as §2, §3

Assay [3] has as its target T5, hRET(ECR)-hIgG1.1_Fc. Kind of assay: SPR; analyte 37 nM over immobilised hRet(ECR)-Fc. Here is the method: as §2, §3
Assay [4] concerns the target T7, full length hGFRAL and full length hRET51 co-expressed on cells (human, UniProt Q6UXV0 19-394; P07949 29-1114).
T7 construct: Two receptors on the same cells (PC12, HEK293 or BHK21); written as one target since the read-outs are of cells that carry both; also called hGFRAL/hRET51 co-transfected; hGFRAL(FL) and hRET51(FL)
Kind of assay: binding to BHK21-hGFRAL-IRES-hRET stable cells, median fluorescence intensity.

The target of assay [5] is T7, full length hGFRAL and full length …. Kind of assay: cell-based or functional assay.
Assay [6] concerns the target T6, VISTA-Fc. Kind of assay: SPR; analyte 12 nM over immobilised VISTA-Fc (Ctrl-Fc). Here is the method:
as §2

Assay [7] has as its target T6, VISTA-Fc. Kind of assay: SPR; analyte 1000 nM over immobilised VISTA-Fc (Ctrl-Fc). As to the method:
as §2, §3

Assay [8] addresses T5, hRET(ECR)-hIgG1.1_Fc. Kind of assay: SPR; analyte 12 nM over immobilised hRet(ECR)-Fc. Here is the method:
as §2, §3

For assay [9], the target named is T5, hRET(ECR)-hIgG1.1_Fc. In words: SPR; analyte 111 nM over immobilised hRet(ECR)-Fc. Here is the method: as §2, §3
For assay [10], the target named is T6, VISTA-Fc. In words: SPR; analyte 37 nM over immobilised VISTA-Fc (Ctrl-Fc). Here is the method: as §2, §3
The target in assay [11] is T7, full length hGFRAL and full length …. In words: cell-based or functional assay. This is another data set of the same source.
Assay [12] concerns the target full length hGFRAL and full length hRET9 co-expressed on HEK293 cells (human, UniProt Q6UXV0 19-394; P07949 29-1063). Kind of assay: cell-based or functional assay.
Assay [13] deals with full length hGFRAL and full length hRET43 co-expressed on HEK293 cells (human, UniProt Q6UXV0 19-394; P07949 29-1062). Kind of assay: cell-based or functional assay.
Assay [14] addresses T5, hRET(ECR)-hIgG1.1_Fc. Kind of assay: SPR; analyte 1000 nM over immobilised hRet(ECR)-Fc. As to the method:
as §2, §3

The target of assay [15] is T5, hRET(ECR)-hIgG1.1_Fc. Kind of assay: SPR; analyte 0 nM over immobilised hRet(ECR)-Fc. Here is the method:
as §2, §3

Assay [16] deals with T6, VISTA-Fc. In words: SPR; analyte 111 nM over immobilised VISTA-Fc (Ctrl-Fc). As to the method:
as §2, §3

Assay [17] deals with T6, VISTA-Fc. Kind of assay: SPR; analyte 0 nM over immobilised VISTA-Fc (Ctrl-Fc). As to the method:
as §2, §3

full length hGFRAL and full length hRET43 co-expressed on HEK293 cells, sequence (P07949 other isoform, or with tags, fused parts or gaps limits assumed): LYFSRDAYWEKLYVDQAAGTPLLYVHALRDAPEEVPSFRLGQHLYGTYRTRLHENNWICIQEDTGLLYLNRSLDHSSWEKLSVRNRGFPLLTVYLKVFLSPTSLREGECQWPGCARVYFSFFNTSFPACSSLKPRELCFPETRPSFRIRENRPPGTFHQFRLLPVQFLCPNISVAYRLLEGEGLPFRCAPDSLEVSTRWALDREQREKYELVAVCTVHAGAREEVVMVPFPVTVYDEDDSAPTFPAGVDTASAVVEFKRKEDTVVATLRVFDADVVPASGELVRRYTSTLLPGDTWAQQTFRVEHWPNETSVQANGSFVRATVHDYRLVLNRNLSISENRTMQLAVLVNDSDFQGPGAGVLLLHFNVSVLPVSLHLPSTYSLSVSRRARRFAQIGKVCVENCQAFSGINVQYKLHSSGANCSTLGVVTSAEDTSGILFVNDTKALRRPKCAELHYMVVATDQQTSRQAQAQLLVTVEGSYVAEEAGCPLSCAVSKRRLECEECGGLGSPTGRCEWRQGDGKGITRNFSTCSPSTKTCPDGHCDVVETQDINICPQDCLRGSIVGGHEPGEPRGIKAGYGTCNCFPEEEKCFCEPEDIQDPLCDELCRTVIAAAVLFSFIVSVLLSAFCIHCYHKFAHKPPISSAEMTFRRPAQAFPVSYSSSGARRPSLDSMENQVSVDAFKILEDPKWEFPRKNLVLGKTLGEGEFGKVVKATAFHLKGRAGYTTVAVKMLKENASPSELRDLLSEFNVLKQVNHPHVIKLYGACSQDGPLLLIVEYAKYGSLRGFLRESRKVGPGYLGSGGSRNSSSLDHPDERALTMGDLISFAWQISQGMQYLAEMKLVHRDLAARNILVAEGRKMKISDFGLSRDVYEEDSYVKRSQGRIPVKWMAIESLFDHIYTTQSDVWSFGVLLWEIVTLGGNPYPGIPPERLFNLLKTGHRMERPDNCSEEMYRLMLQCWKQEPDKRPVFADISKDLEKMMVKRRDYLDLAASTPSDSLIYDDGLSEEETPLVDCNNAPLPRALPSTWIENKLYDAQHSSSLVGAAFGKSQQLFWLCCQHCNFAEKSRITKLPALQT
T7 sequence (P07949 29-1114, one chain of several): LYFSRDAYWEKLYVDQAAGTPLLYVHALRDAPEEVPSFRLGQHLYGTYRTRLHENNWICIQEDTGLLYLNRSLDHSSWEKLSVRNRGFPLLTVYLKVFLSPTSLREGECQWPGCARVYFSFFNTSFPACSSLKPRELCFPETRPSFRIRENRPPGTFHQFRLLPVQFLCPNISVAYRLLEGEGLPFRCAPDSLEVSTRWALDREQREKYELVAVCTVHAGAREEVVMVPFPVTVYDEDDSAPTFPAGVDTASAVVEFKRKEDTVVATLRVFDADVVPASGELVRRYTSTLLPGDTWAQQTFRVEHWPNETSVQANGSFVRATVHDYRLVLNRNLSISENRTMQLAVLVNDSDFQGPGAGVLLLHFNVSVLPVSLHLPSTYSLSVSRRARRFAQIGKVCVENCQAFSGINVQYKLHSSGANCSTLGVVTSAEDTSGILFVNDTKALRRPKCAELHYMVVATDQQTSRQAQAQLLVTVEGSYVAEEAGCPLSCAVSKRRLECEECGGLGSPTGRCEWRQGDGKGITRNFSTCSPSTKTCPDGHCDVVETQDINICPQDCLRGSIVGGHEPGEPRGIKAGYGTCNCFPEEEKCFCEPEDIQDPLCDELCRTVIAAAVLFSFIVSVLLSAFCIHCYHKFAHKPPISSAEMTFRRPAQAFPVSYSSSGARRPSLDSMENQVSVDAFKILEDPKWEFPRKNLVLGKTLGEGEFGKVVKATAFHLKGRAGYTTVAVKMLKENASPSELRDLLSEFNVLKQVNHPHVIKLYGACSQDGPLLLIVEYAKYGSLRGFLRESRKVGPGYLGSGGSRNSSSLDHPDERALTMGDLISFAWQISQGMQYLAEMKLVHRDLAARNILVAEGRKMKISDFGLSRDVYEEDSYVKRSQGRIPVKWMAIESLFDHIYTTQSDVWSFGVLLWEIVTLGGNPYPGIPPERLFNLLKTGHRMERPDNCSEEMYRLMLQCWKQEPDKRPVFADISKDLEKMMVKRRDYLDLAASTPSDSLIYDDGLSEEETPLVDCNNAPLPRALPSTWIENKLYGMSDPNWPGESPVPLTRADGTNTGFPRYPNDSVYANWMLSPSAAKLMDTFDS
full length hGFRAL and full length hRET9 co-expressed on HEK293 cells, sequence (P07949 other isoform, or with tags, fused parts or gaps limits assumed): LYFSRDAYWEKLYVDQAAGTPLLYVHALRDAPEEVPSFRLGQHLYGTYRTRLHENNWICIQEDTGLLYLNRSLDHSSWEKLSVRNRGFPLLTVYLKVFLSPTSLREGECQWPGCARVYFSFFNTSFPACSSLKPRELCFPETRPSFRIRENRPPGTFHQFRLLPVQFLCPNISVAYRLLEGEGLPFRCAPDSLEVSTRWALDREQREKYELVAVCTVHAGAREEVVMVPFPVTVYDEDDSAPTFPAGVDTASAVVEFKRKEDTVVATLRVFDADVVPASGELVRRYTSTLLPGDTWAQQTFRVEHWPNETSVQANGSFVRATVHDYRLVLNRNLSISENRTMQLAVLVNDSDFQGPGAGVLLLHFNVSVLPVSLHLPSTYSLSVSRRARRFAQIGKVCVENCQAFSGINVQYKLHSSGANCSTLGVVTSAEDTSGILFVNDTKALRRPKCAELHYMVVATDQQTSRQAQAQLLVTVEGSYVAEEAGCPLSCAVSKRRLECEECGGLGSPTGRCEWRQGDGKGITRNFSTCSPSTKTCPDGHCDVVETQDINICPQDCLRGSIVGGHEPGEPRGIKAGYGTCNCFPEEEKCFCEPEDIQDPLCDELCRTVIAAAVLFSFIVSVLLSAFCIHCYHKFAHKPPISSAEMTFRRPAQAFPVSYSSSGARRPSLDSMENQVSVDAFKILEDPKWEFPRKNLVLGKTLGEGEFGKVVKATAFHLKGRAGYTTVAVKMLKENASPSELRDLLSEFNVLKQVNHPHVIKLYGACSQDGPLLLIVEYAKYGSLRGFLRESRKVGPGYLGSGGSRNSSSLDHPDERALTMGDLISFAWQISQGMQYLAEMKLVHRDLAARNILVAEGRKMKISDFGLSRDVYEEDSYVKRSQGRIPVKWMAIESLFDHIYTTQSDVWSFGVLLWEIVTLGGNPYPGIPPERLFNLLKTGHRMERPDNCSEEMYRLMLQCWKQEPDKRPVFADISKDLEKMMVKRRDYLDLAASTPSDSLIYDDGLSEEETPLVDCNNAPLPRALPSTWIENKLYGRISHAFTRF
T5 sequence (chain, as listed by the source limits assumed): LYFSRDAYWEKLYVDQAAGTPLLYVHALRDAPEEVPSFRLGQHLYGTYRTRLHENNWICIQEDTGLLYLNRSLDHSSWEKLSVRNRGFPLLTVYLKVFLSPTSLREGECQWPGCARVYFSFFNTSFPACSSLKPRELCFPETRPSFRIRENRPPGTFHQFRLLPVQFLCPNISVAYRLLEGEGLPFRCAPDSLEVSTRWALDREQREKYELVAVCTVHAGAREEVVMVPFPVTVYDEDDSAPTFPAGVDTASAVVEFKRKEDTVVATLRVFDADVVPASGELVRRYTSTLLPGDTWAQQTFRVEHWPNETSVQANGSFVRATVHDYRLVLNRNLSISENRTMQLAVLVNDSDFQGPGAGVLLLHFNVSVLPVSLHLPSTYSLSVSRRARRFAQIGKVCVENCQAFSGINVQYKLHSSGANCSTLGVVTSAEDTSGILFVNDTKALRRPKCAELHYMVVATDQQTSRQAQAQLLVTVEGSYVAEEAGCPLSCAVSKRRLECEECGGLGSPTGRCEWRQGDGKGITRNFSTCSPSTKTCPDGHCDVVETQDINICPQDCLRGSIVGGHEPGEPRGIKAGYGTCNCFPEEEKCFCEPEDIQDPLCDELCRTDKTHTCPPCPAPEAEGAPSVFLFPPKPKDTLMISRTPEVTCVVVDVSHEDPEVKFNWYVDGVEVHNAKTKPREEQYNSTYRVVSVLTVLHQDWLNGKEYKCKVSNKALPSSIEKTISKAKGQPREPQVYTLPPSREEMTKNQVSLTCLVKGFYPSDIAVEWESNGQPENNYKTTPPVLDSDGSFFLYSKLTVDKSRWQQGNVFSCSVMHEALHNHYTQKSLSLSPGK

On to B1, for which the binding result is listed as “binds” with wild type human MIC-1; “no binding” with hARTN; “no binding” in the assay with hNRTN; “no binding” in the assay with hGDNF; “no binding” in the assay with hPSPN.

As to B2, the “Response (RU)” value with hRET(ECR)-hIgG1.1_Fc [1] was 0.88 RU; in the assay with VISTA-Fc [2], 0.226 RU; with hRET(ECR)-hIgG1.1_Fc [3] it was 0.467 RU; with VISTA-Fc [6], -0.245 RU; in the assay with VISTA-Fc [7], -0.515 RU; in the assay with hRET(ECR)-hIgG1.1_Fc [8], 0.184 RU. For the same molecule, the “Response (RU)” value is 0.484 RU with hRET(ECR)-hIgG1.1_Fc [9]; -0.0179 RU with VISTA-Fc [10]; 0.527 RU with hRET(ECR)-hIgG1.1_Fc [14]; 0 RU in the assay with hRET(ECR)-hIgG1.1_Fc [15]; 0.362 RU with VISTA-Fc [16]; 0 RU with VISTA-Fc [17]. This molecule displayed an EC50 in [4] of 1.3 nM. Further, the “EC50 of ERK1/2 phosphorylation; hGFRAL and hRET51 co-transfected PC12 cells” value in assay [5] was roughly 0.2 nM. The “pERK1/2 (Evision Unit); HEK293 cells; wtMIC-1 0.001000 nM” value in assay [11], in assay [12] and in assay [13] was 1 Evision Unit in each case. Besides, the results for the “pERK1/2 (Evision Unit); HEK293 cells; wtMIC-1 0.030483 nM” value in assay [11], in assay [12] and in assay [13] were 1.02 Evision Unit, 1.07 Evision Unit and 1.03 Evision Unit, respectively. Moreover, the “pERK1/2 (Evision Unit); HEK293 cells; wtMIC-1 0.091449 nM” value in assay [11] is 0.969 Evision Unit; in assay [12], 0.988 Evision Unit; in assay [13] it was 1.01 Evision Unit. In addition, the “pERK1/2 (Evision Unit); HEK293 cells; wtMIC-1 0.274348 nM” value in [11] was 1.13 Evision Unit; in [12], 1.07 Evision Unit; in assay [13], 1.05 Evision Unit. Moreover, the “pERK1/2 (Evision Unit); HEK293 cells; wtMIC-1 0.823045 nM” value in assay [11] was 1.4 Evision Unit; in [12], 1.17 Evision Unit; in assay [13] it was 1.09 Evision Unit. The results for the “pERK1/2 (Evision Unit); HEK293 cells; wtMIC-1 2.469136 nM” value in assay [11], in [12] and in [13] were 1.69 Evision Unit, 1.24 Evision Unit and 1.07 Evision Unit, respectively. Besides, the “pERK1/2 (Evision Unit); HEK293 cells; wtMIC-1 7.407407 nM” value in assay [11] was 1.7 Evision Unit; in [12], 1.3 Evision Unit; in [13], 1.14 Evision Unit. Further, the “pERK1/2 (Evision Unit); HEK293 cells; wtMIC-1 22.222220 nM” value turned out to be 1.73 Evision Unit in [11], 1.26 Evision Unit in [12] and 1.11 Evision Unit in assay [13]. Further, the “pERK1/2 (Evision Unit); HEK293 cells; wtMIC-1 66.666670 nM” value was 1.74 Evision Unit in [11], 1.32 Evision Unit in assay [12] and 1.16 Evision Unit in assay [13].
